The values that follow come from patent publication US20250012721.

Series [1] has as its target T1, substrate peptide 1: 2Abz-GLQRALEI-Lys(Dnp)-NH2.
T1 chain: GLQRALEI

In series [2] the target is T2, substrate peptide 3: 2Abz-GYLGRSYKVG-Lys(Dnp)D-OH (not fully specified).
T2 chain: GYLGRSYKVG

The target in series [3] is T3, substrate peptide 2: 2Abz-SLGRKIQ-Lys(Dnp)-NH2.
T3 chain: SLGRKIQ

B1: double-stranded activated C1s protein (protein)
chain 1: EPTMYGEILSPNYPQAYPSEVEKSWDIEVPEGYGIHLYFTHLDIELSENCAYDSVQIISGDTEEGRLCGQRSSNNPHSPIVEEFQVPYNKLQVIFKSDFSNEERFTGFAAYYVATDINECTDFVDVPCSHFCNNFIGGYFCSCPPEYFLHDDMKNCGVNCSGDVFTALIGEIASPNYPKPYPENSRCEYQIRLEKGFQVVVTLRREDFDVEAADSAGNCLDSLVFVAGDRQFGPYCGHGFPGPLNIETKSNALDIIFQTDLTGQKKGWKLRYHGDPMPCPKEDTPNSVWEPAKAKYVFRDVVQITCLDGFEVVEGRVGATSFYSTCQSNGKWSNSKLKCQPVDCGIPESIENGKVEDPESTLFGSVIRYTCEEPYYYMENGGGGEYHCAGNGSWVNEVLGPELPKCVPVCGVPREPFEEKQR
chain 2: IIGGSDADIKNFPWQVFFDNPWAGGALINEYWVLTAAHVVEGNREPTMYVGSTSVQTSRLAKSKMLTPEHVFIHPGWKLLEVPEGRTNFDNDIALVRLKDPVKMGPTVSPICLPGTSSDYNLMDGDLGLISGWGRTEKRDRAVRLKAARLPVAPLRKCKEVKVEKPTADAEAYVFTPNMICAGGEKGMDSCKGDSGGAFAVQDPNDKTKFYAAGLVSWGPQCGTYGLYTRVKNYVDWIMKTMQENSTPRED
As for B1, the figures for the Kcat/Km in series [1], in series [2] and in series [3] were 1.67, 15.4 and 1.45, respectively.
